Positions count from the first letter of the chain named. Names and notes keep the numbering of the source. Values belong to the molecule of their own block, whether it stands above or below them.
Assays:
[1] = target: His-tagged GFP-dmDcr1 (Drosophila) (UniProt Q9VCU9); assay: fluorescence cross-correlation spectroscopy
[2] = target: Alexa Fluor 647-labeled Loqs-3 (Loqs-3^AF647), single-labeled dimer fraction (Drosophila) (UniProt Q9VJY9); assay: SEC
[3] = target: GST-Loqs-3 (minimal linker plus dsRBD3) (Drosophila) (UniProt Q9VJY9); assay: pull-down
His-tagged GFP-dmDcr1 = His-tagged GFP-dmDcr1 (Drosophila, UniProt Q9VCU9 1-2249); assay: fluorescence cross-correlation spectroscopy
His-tagged GFP-dmDcr1, sequence (Q9VCU9 whole entry): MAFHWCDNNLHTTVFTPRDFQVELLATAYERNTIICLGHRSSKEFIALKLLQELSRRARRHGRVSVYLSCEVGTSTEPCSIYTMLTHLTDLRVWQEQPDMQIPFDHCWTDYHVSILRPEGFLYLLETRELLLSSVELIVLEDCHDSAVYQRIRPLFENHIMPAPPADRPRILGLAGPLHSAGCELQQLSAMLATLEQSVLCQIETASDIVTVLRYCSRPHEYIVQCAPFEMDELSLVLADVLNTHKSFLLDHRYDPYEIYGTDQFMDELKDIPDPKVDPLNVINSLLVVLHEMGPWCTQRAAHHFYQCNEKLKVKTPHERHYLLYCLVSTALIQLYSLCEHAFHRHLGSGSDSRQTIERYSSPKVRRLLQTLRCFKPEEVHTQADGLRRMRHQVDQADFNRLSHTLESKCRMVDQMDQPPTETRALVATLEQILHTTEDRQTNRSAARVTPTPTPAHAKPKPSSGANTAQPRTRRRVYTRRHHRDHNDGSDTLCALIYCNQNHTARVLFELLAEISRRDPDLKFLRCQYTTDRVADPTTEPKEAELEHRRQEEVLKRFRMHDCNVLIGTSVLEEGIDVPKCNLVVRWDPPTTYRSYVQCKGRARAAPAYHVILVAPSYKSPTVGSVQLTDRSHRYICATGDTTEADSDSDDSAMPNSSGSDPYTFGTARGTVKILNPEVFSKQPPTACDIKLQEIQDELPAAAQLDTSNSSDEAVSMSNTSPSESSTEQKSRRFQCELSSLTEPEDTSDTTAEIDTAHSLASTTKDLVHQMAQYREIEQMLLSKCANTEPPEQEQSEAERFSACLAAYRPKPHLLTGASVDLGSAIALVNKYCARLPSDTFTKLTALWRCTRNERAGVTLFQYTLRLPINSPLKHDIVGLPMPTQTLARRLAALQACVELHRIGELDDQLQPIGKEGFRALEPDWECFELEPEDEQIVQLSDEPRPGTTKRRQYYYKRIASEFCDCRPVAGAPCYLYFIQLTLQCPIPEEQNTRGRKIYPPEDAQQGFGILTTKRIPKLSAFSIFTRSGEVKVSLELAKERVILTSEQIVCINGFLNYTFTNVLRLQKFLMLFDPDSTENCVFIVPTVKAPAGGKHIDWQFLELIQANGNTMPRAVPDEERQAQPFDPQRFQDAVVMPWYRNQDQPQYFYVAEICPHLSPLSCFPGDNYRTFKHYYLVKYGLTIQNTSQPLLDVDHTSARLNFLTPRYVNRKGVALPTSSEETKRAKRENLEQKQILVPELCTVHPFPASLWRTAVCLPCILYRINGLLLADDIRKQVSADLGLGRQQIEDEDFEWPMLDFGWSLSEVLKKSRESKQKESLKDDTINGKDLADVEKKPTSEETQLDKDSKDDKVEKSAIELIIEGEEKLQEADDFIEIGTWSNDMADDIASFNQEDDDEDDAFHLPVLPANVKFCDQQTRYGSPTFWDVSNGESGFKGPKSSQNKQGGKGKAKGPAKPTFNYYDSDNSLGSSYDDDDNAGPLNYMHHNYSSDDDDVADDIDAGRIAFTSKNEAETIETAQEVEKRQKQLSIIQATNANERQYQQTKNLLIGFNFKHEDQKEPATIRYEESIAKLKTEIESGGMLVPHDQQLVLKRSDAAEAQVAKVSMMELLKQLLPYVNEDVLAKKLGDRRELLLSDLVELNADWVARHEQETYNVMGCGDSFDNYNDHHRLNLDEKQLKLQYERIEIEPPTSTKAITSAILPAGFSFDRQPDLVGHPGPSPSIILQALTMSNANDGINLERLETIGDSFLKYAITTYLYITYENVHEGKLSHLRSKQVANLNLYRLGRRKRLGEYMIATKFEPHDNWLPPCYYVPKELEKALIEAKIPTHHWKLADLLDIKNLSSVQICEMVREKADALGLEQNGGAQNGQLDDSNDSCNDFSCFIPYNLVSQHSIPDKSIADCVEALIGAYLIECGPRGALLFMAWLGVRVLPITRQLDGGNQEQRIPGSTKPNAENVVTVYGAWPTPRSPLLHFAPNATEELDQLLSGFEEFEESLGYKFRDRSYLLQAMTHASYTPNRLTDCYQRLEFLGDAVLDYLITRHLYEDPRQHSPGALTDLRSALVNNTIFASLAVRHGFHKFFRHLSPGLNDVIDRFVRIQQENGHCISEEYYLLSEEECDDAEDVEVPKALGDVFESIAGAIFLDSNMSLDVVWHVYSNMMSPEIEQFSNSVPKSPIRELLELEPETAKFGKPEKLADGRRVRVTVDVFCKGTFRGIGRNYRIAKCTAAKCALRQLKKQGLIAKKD

SEC = target: the molecule itself; assay: SEC

His-tagged GFP-dmDcr1 (Drosophila), sequence (Q9VCU9 whole entry): as above

Molecule: Alexa Fluor 647-labeled dsRBD3 (dsRDB3^AF647) (from UniProt Q9VJY9 392-463) (domain or fragment)
Kd [1]: 192 nM

Molecule: Alexa Fluor 647-labeled Loqs-3 (Loqs-3^AF647), single-labeled dimer fraction (from UniProt Q9VJY9 368-463) (domain or fragment)
stoichiometry N [2]: 2

B2: Loqs-3 K460E (size-exclusion chromatography) (domain or fragment, Drosophila, UniProt Q9VJY9 368-463, looked up)
chain: HKTLKNATGKKLLKLQKTCLKNNKIDYIKLLGEIATENQFEVTYVDIEEKTFSGQFQCLVQLSTLPVGVCHGSGPTAADAQRHAAQNALEYLEIMT
binding result (SEC): binds

Now from value to molecule:

fold binding against dsRBD3 alone [3]: 10 fold
Molecule: His-tagged dmDcr1 (Drosophila Dicer1), Q9VCU9 1-2249

IC50 (His-tagged GFP-dmDcr1): 9.3 nM
Ki (His-tagged GFP-dmDcr1): 3.6 nM
B1: Loqs-3, unlabeled, purified (domain or fragment, Drosophila, UniProt Q9VJY9 368-463, looked up)
chain: B2 chain with E93K

IC50 (His-tagged GFP-dmDcr1): 104 nM
Ki (His-tagged GFP-dmDcr1): 43.6 nM
B3: Loqs dsRBD3, unlabeled, purified (domain or fragment, Drosophila)
chain: IDYIKLLGEIATENQFEVTYVDIEEKTFSGQFQCLVQLSTLPVGVCHGSGPTAADAQRHAAQNALEYLKIMT
